Tested on: Escherichia coli TOP10
Test: shrunken log2 fold change of peptide-encoding DNA abundance (4.5 h post-induction vs induction); higher = less antimicrobial activity (less host growth inhibition)
Details: time post-induction: 4.5 h; library: site-saturation at positions 5, 18, 19, 20
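Note: peptides expressed intracellularly from a pBAD plasmid library in pooled LB shake-flask culture, induced with 0.3% L-arabinose, DNA abundance read by NGS, three biological replicates, DESeq2 with apeglm shrinkage.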

Sequence | shrunken log2 fold change
RRIRIRPPRLPRPRPRPIYQPRP | -0.00516
RRIRIRPPRLPRPRPRPKAPPRP | -0.0151
RRIRIRPPRLPRPRPRPKDDPRP | -0.254
RRIRIRPPRLPRPRPRPKENPRP | -0.505
RRIRIRPPRLPRPRPRPKGCPRP | -0.00865
RRIRIRPPRLPRPRPRPKGLPRP | 0.121
RRIRIRPPRLPRPRPRPKGQPRP | 0.143
RRIRIRPPRLPRPRPRPKHFPRP | -0.292
RRIRIRPPRLPRPRPRPKHWPRP | 0.357
RRIRIRPPRLPRPRPRPKIKPRP | -0.696
RRIRIRPPRLPRPRPRPKLIPRP | -0.233
RRIRIRPPRLPRPRPRPKMCPRP | 0.168
RRIRIRPPRLPRPRPRPKMFPRP | 0.0072
RRIRIRPPRLPRPRPRPKNMPRP | -0.577
RRIRIRPPRLPRPRPRPKNYPRP | -0.417
RRIRIRPPRLPRPRPRPKPCPRP | -0.0965
RRIRIRPPRLPRPRPRPKPFPRP | -0.00302
RRIRIRPPRLPRPRPRPKPPPRP | 0.269
RRIRIRPPRLPRPRPRPKQTPRP | -0.0291
RRIRIRPPRLPRPRPRPKQYPRP | -0.474
RRIRIRPPRLPRPRPRPKRDPRP | -0.106
RRIRIRPPRLPRPRPRPKSTPRP | -0.214
RRIRIRPPRLPRPRPRPKVFPRP | 0.0502
RRIRIRPPRLPRPRPRPKYNPRP | -1.01
RRIRIRPPRLPRPRPRPLALPRP | -0.138

Sequence | shrunken log2 fold change
RRIRIRPPRLPRPRPRPLCKPRP | -0.336
RRIRIRPPRLPRPRPRPLDEPRP | -0.287
RRIRIRPPRLPRPRPRPLDFPRP | 0.0619
RRIRIRPPRLPRPRPRPLFHPRP | -0.779
RRIRIRPPRLPRPRPRPLHDPRP | 0.181
RRIRIRPPRLPRPRPRPLHKPRP | -0.165
RRIRIRPPRLPRPRPRPLHYPRP | -0.779
RRIRIRPPRLPRPRPRPLLFPRP | -0.553
RRIRIRPPRLPRPRPRPLLHPRP | -0.221
RRIRIRPPRLPRPRPRPLLMPRP | -0.489
RRIRIRPPRLPRPRPRPLMMPRP | -1.03
RRIRIRPPRLPRPRPRPLMPPRP | 1.27
RRIRIRPPRLPRPRPRPLNCPRP | -0.0654
RRIRIRPPRLPRPRPRPLPFPRP | -1.01
RRIRIRPPRLPRPRPRPLQVPRP | -2
RRIRIRPPRLPRPRPRPLRDPRP | 0.0322
RRIRIRPPRLPRPRPRPLRSPRP | 0.299
RRIRIRPPRLPRPRPRPLRYPRP | -0.409
RRIRIRPPRLPRPRPRPLSEPRP | -0.0382
RRIRIRPPRLPRPRPRPLSIPRP | -0.493
RRIRIRPPRLPRPRPRPLSMPRP | -0.395
RRIRIRPPRLPRPRPRPLTAPRP | 0.00505
RRIRIRPPRLPRPRPRPLTCPRP | -0.174
RRIRIRPPRLPRPRPRPLTDPRP | -0.201
RRIRIRPPRLPRPRPRPLTQPRP | -0.648

Sequence | shrunken log2 fold change
RRIRIRPPRLPRPRPRPLVCPRP | -0.346
RRIRIRPPRLPRPRPRPLVTPRP | -0.105
RRIRIRPPRLPRPRPRPLWEPRP | 0.223
RRIRIRPPRLPRPRPRPLWQPRP | 0.0858
RRIRIRPPRLPRPRPRPMAAPRP | 0.403
RRIRIRPPRLPRPRPRPMAMPRP | -0.024
RRIRIRPPRLPRPRPRPMAQPRP | 0.00812
RRIRIRPPRLPRPRPRPMEEPRP | -0.00798
RRIRIRPPRLPRPRPRPMFIPRP | -0.454
RRIRIRPPRLPRPRPRPMFQPRP | 0.0263
RRIRIRPPRLPRPRPRPMGSPRP | -0.0432
RRIRIRPPRLPRPRPRPMKDPRP | -0.135
RRIRIRPPRLPRPRPRPMKKPRP | 0.0138
RRIRIRPPRLPRPRPRPMKYPRP | -0.104
RRIRIRPPRLPRPRPRPMLNPRP | -0.526
RRIRIRPPRLPRPRPRPMMTPRP | -0.115
RRIRIRPPRLPRPRPRPMNFPRP | -0.0453
RRIRIRPPRLPRPRPRPMRIPRP | -0.0754
RRIRIRPPRLPRPRPRPMRQPRP | 0.3
RRIRIRPPRLPRPRPRPMVFPRP | -0.263
RRIRIRPPRLPRPRPRPMVIPRP | -0.154
RRIRIRPPRLPRPRPRPMVNPRP | -0.294
RRIRIRPPRLPRPRPRPMWGPRP | -0.196
RRIRIRPPRLPRPRPRPMYDPRP | -0.726
RRIRIRPPRLPRPRPRPMYVPRP | 0.00823
